The text below walks through data of the MegaScale stability set (Tsuboyama et al. 2023).

B1: r11_951_TrROS_Hall (parent)
chain: KKKYVIKVYFEDTGKEVEIEAESKEEALEAAKRLAEELGLKIKKVEIYP

The variants in the data set derive from B1. Nature of the data set: folding stability dG (cDNA display proteolysis); higher = more stable. The following applies: PBS, room temperature.
As to KKKYVIKVYFEDTGKEVEIEAEFKEEALEAAKRLAEELGLKIKKVEIYP, the “folding stability dG” value was 4.26 kcal/mol. Consider KKKYVIKVYFEDTGKEVEIEAEHKEEALEAAKRLAEELGLKIKKVEIYP, for which the “folding stability dG” value came to 4.08 kcal/mol. As to KKKYVIKVYFEDTGKEVEIEAEMKEEALEAAKRLAEELGLKIKKVEIYP, the “folding stability dG” value worked out at 3.83 kcal/mol.

For KKKYVIKVYFEDTGKEVEIEAEKKEEALEAAKRLAEELGLKIKKVEIYP, the “folding stability dG” value is 3.92 kcal/mol. For KKKYVIKVYFEDTGKEVEIEAEVKEEALEAAKRLAEELGLKIKKVEIYP the value was 3.91 kcal/mol; for KKKYVIKVYFEDTGKEVEIEAERKEEALEAAKRLAEELGLKIKKVEIYP, 4 kcal/mol; for KKKYVIKVYFEDTGKEVEIEAEYKEEALEAAKRLAEELGLKIKKVEIYP, 3.98 kcal/mol. In the case of KKKYVIKVYFEDTGKEVEIEAENKEEALEAAKRLAEELGLKIKKVEIYP, the “folding stability dG” value was found to be 4.38 kcal/mol.

As for KKKYVIKVYFEDTGKEVEIEAEIKEEALEAAKRLAEELGLKIKKVEIYP, the “folding stability dG” value worked out at 4 kcal/mol.

On to KKKYVIKVYFEDTGKEVEIEAEQKEEALEAAKRLAEELGLKIKKVEIYP, for which the “folding stability dG” value came to 3.89 kcal/mol.

For KKKYVIKVYFEDTGKEVEIEAELKEEALEAAKRLAEELGLKIKKVEIYP, the “folding stability dG” value was 4.01 kcal/mol. On to KKKYVIKVYFEDTGKEVEIEAEGKEEALEAAKRLAEELGLKIKKVEIYP, for which the “folding stability dG” value amounted to 4.06 kcal/mol. For the variant KKKYVIKVYFEDTGKEVEIEAEWKEEALEAAKRLAEELGLKIKKVEIYP, the “folding stability dG” value came out at 4.13 kcal/mol. On to KKKYVIKVYFEDTGKEVEIEAEAKEEALEAAKRLAEELGLKIKKVEIYP, for which the “folding stability dG” value was determined as 4.08 kcal/mol.

As for KKKYVIKVYFEDTGKEVEIEAETKEEALEAAKRLAEELGLKIKKVEIYP, the “folding stability dG” value was determined as 4.35 kcal/mol. On to KKKYVIKVYFEDTGKEVEIEAEDKEEALEAAKRLAEELGLKIKKVEIYP, for which the “folding stability dG” value was 4.31 kcal/mol. As to KKKYVIKVYFEDTGKEVEIEAEPKEEALEAAKRLAEELGLKIKKVEIYP, the “folding stability dG” value was 2.12 kcal/mol.

KKKYVIKVYFEDTGKEVEIEAECKEEALEAAKRLAEELGLKIKKVEIYP: the “folding stability dG” value was determined as 4.05 kcal/mol. As for KKKYVIKVYFEDTGKEVEIEAEEKEEALEAAKRLAEELGLKIKKVEIYP, the “folding stability dG” value amounted to 4.22 kcal/mol. With KKKYVIKVYFEDTGKEVEIEAESKEERLEAAKRLAEELGLKIKKVEIYP, the “folding stability dG” value came out at 1.78 kcal/mol. As for KKKYVIKVYFEDTGKEVEIEAESKEEDLEAAKRLAEELGLKIKKVEIYP, the “folding stability dG” value worked out at 1.49 kcal/mol. Consider KKKYVIKVYFEDTGKEVEIEAESKEEGLEAAKRLAEELGLKIKKVEIYP, for which the “folding stability dG” value was determined as 4.68 kcal/mol.

KKKYVIKVYFEDTGKEVEIEAESKEETLEAAKRLAEELGLKIKKVEIYP: the “folding stability dG” value was determined as 3.58 kcal/mol.

Turning to KKKYVIKVYFEDTGKEVEIEAESKEEQLEAAKRLAEELGLKIKKVEIYP, the “folding stability dG” value was determined as 2.23 kcal/mol. Regarding KKKYVIKVYFEDTGKEVEIEAESKEEILEAAKRLAEELGLKIKKVEIYP, the “folding stability dG” value is 4.09 kcal/mol. Turning to KKKYVIKVYFEDTGKEVEIEAESKEEMLEAAKRLAEELGLKIKKVEIYP, the “folding stability dG” value was found to be 3.71 kcal/mol. Regarding KKKYVIKVYFEDTGKEVEIEAESKEEFLEAAKRLAEELGLKIKKVEIYP, the “folding stability dG” value was determined as 3.8 kcal/mol. Regarding KKKYVIKVYFEDTGKEVEIEAESKEEPLEAAKRLAEELGLKIKKVEIYP, the “folding stability dG” value worked out at 2.74 kcal/mol.

Consider KKKYVIKVYFEDTGKEVEIEAESKEENLEAAKRLAEELGLKIKKVEIYP, for which the “folding stability dG” value turned out to be 2.01 kcal/mol. As to KKKYVIKVYFEDTGKEVEIEAESKEELLEAAKRLAEELGLKIKKVEIYP, the “folding stability dG” value was determined as 4.34 kcal/mol. Take KKKYVIKVYFEDTGKEVEIEAESKEEVLEAAKRLAEELGLKIKKVEIYP: the “folding stability dG” value worked out at 4.38 kcal/mol. Turning to KKKYVIKVYFEDTGKEVEIEAESKEEYLEAAKRLAEELGLKIKKVEIYP, the “folding stability dG” value was determined as 3.79 kcal/mol.

Regarding KKKYVIKVYFEDTGKEVEIEAESKEESLEAAKRLAEELGLKIKKVEIYP, the “folding stability dG” value came out at 4.03 kcal/mol. On to KKKYVIKVYFEDTGKEVEIEAESKEEHLEAAKRLAEELGLKIKKVEIYP, for which the “folding stability dG” value was 2.78 kcal/mol.

KKKYVIKVYFEDTGKEVEIEAESKEEELEAAKRLAEELGLKIKKVEIYP: the “folding stability dG” value came to 1.78 kcal/mol. Regarding KKKYVIKVYFEDTGKEVEIEAESKEEKLEAAKRLAEELGLKIKKVEIYP, the “folding stability dG” value was 1.74 kcal/mol. For the variant KKKYVIKVYFEDTGKEVEIEAESKEECLEAAKRLAEELGLKIKKVEIYP, the “folding stability dG” value came out at 4.23 kcal/mol.

For the variant KKKYVIKVYFEDTGKEVEIEAESKEEWLEAAKRLAEELGLKIKKVEIYP, the “folding stability dG” value was 3.93 kcal/mol.

As for KKKYVIKVYFEDTGKEVEIEAESKYEALEAAKRLAEELGLKIKKVEIYP, the “folding stability dG” value amounted to 4.33 kcal/mol. In the case of KKKYVIKVYFEDTGKEVEIEAESKMEALEAAKRLAEELGLKIKKVEIYP, the “folding stability dG” value came out at 4.32 kcal/mol. On to KKKYVIKVYFEDTGKEVEIEAESKPEALEAAKRLAEELGLKIKKVEIYP, for which the “folding stability dG” value is 4.16 kcal/mol.

For KKKYVIKVYFEDTGKEVEIEAESKDEALEAAKRLAEELGLKIKKVEIYP, the “folding stability dG” value amounted to 4.58 kcal/mol. Regarding KKKYVIKVYFEDTGKEVEIEAESKGEALEAAKRLAEELGLKIKKVEIYP, the “folding stability dG” value was found to be 4.15 kcal/mol. As for KKKYVIKVYFEDTGKEVEIEAESKTEALEAAKRLAEELGLKIKKVEIYP, the figure is 4.28 kcal/mol; as for KKKYVIKVYFEDTGKEVEIEAESKVEALEAAKRLAEELGLKIKKVEIYP, 4.36 kcal/mol; as for KKKYVIKVYFEDTGKEVEIEAESKSEALEAAKRLAEELGLKIKKVEIYP, 4.12 kcal/mol. With KKKYVIKVYFEDTGKEVEIEAESKCEALEAAKRLAEELGLKIKKVEIYP, the “folding stability dG” value was 4.28 kcal/mol. KKKYVIKVYFEDTGKEVEIEAESKNEALEAAKRLAEELGLKIKKVEIYP: the “folding stability dG” value was determined as 4.16 kcal/mol. As for KKKYVIKVYFEDTGKEVEIEAESKWEALEAAKRLAEELGLKIKKVEIYP, the figure is 4.25 kcal/mol.

As to KKKYVIKVYFEDTGKEVEIEAESKREALEAAKRLAEELGLKIKKVEIYP, the “folding stability dG” value worked out at 4.22 kcal/mol.

For the variant KKKYVIKVYFEDTGKEVEIEAESKLEALEAAKRLAEELGLKIKKVEIYP, the “folding stability dG” value is 4.18 kcal/mol. As for KKKYVIKVYFEDTGKEVEIEAESKKEALEAAKRLAEELGLKIKKVEIYP, the figure is 4.22 kcal/mol; as for KKKYVIKVYFEDTGKEVEIEAESKQEALEAAKRLAEELGLKIKKVEIYP, 4.18 kcal/mol.
